± gives the uncertainty stated by the source.
Test: self-splicing fitness, log relative to wild type (ln ratio); higher = more splicing; Tetrahymena group I intron in knt gene, E. coli kanamycin selection, DiMSum; sequences stand for … in CUCUCU…GGAGGGAAAAGUUAUCAGGCAUGCACCUGGUAGCUAGUCUUUAAACCAAUAGAUUGCAUCGGUUUAAAAGGCAAGACCGUCAAAUUGCGGGAAAGGGGUCAACAGCCGUUCAGUACCAAGUCUCAGGGGAAACUUUGAGAUGGCCUUGCAAAGGGUAUGGUAAUAAGCUGACGGACAUGGUCCUAACCACGCAGCCAAGUCCUAAGUCAACAGAUCUUCUGUUGAUAUGGAUGCAGUUCACAGACUAAAUGUCGGUCGGGGAAGAUGUAUUCUUCUCAUAAGAUAUAGUCGGACCUCUCCUUAAUGGGAGCUAGCGGAUGAAGUGAUGCAACACUGGAGCCGCUGGGAACUAAUUUGUAUGCGAAAGUAUAUUGAUUAGUUUUGGAGUACUCGUGGUCG
In short: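 Six replicate transformations of E. coli BL21(DE3) with a pET-22b(+) library were grown overnight at 37°C or 30°C. The library randomised all eight P1ex-region intron nucleotides, the intron lying in the knt kanamycin-resistance gene, and plates were LB agar with or without 25 μg/mL kanamycin plus 100 μg/mL carbenicillin, 50 μM IPTG and 0.2% rhamnose. Pooled colonies were amplicon-sequenced on an Illumina HiSeq 2500, and fitness is the DiMSum error-weighted combination of wild-type-normalised replicate fold changes, kanamycin versus none.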

Row | Sequence | self-splicing fitness (ln) (30 °C) | self-splicing fitness (ln) (37 °C)
1 | UUGUAGCAAUAUUACGAGCU | -1.88 ± 0.22 | -0.4 ± 0.2
2 | CCUGAGCAAUAUUACGAAGU | – | -0.825 ± 0.19
3 | ACCAAGCAAUAUUACGGAAC | -3.63 ± 0.21 | -1.99 ± 0.2
4 | GCUUAGCAAUAUUACGGCAU | -1.79 ± 0.17 | -1.61 ± 0.2
5 | AGACAGCAAUAUUACGAUUC | -1.12 ± 0.08 | -0.569 ± 0.11
6 | UUUAAGCAAUAUUACGACUG | -0.203 ± 0.097 | 0.954 ± 0.12
7 | UGUGAGCAAUAUUACGACAU | -3.682 ± 0.033 | -2.45 ± 0.042
8 | GCGAAGCAAUAUUACGGUAG | -4.07 ± 0.42 | -2.77 ± 0.26
9 | AGUGAGCAAUAUUACGUGUA | -3.6 ± 0.28 | -2.84 ± 0.23
10 | AAGGAGCAAUAUUACGGCCU | -1.62 ± 0.12 | -0.486 ± 0.12
11 | AUAGAGCAAUAUUACGGGGU | -3.46 ± 0.21 | -3.53 ± 0.23
12 | UGCUAGCAAUAUUACGUCUG | -0.586 ± 0.088 | -0.323 ± 0.095
13 | UAGUAGCAAUAUUACGCCAC | – | -1.56 ± 0.4
14 | CUCUAGCAAUAUUACGAGUG | -1.62 ± 0.14 | -1.09 ± 0.15
15 | UGCUAGCAAUAUUACGCGCU | -1.96 ± 0.12 | -0.777 ± 0.13
16 | GCGAAGCAAUAUUACGCCCC | -2.37 ± 0.46 | –
17 | UUGGAGCAAUAUUACGAGGA | -3.13 ± 0.48 | -1.56 ± 0.27
18 | CCAUAGCAAUAUUACGGGUU | -3.69 ± 0.17 | -3.79 ± 0.34
19 | UUUGAGCAAUAUUACGGAAG | – | -1.41 ± 0.43
20 | CAUUAGCAAUAUUACGUUGA | -3.86 ± 0.37 | -2.65 ± 0.34
21 | UCGGAGCAAUAUUACGAGUC | – | -0.017 ± 0.39
22 | ACAGAGCAAUAUUACGGGGG | -3.7 ± 0.19 | -2.31 ± 0.2
23 | CGCCAGCAAUAUUACGGCUU | -0.48 ± 0.07 | -0.347 ± 0.08
24 | UACUAGCAAUAUUACGCCGU | -2.24 ± 0.25 | -2.67 ± 0.48
25 | AGCCAGCAAUAUUACGGUUU | -3.43 ± 0.2 | -2.04 ± 0.18

Row | Sequence | self-splicing fitness (ln) (30 °C) | self-splicing fitness (ln) (37 °C)
26 | UCCCAGCAAUAUUACGGUCC | -1.68 ± 0.14 | -1.26 ± 0.18
27 | GGGCAGCAAUAUUACGAUAU | -0.768 ± 0.099 | -0.877 ± 0.1
28 | UACCAGCAAUAUUACGCUGU | -3.86 ± 0.17 | -1.36 ± 0.13
29 | GUGAAGCAAUAUUACGUUUG | -2.25 ± 0.09 | -1.85 ± 0.12
30 | GGUCAGCAAUAUUACGCUAA | -1.1 ± 0.095 | 0.512 ± 0.13
31 | AAGCAGCAAUAUUACGUCUU | -1.66 ± 0.075 | -1.05 ± 0.071
32 | CCGCAGCAAUAUUACGGACU | -3.14 ± 0.17 | -2.31 ± 0.25
33 | UACGAGCAAUAUUACGGGCU | – | -2.43 ± 0.27
34 | GUCCAGCAAUAUUACGCGUA | -0.0475 ± 0.068 | 0.185 ± 0.07
35 | AGUUAGCAAUAUUACGGAAU | -3.73 ± 0.46 | -2 ± 0.43
36 | GGGUAGCAAUAUUACGUUGG | -3.28 ± 0.28 | -2.14 ± 0.32
37 | GCUGAGCAAUAUUACGACGC | – | -1.7 ± 0.42
38 | UGGCAGCAAUAUUACGCGAU | -2.67 ± 0.18 | -2.01 ± 0.21
39 | CCCAAGCAAUAUUACGUACU | -3.84 ± 0.19 | -2.46 ± 0.21
40 | ACUGAGCAAUAUUACGGCAA | -2.13 ± 0.14 | -2.33 ± 0.21
41 | ACAGAGCAAUAUUACGCGGA | -3.57 ± 0.29 | -2.62 ± 0.19
42 | UGUUAGCAAUAUUACGAGUG | -0.0674 ± 0.16 | -0.336 ± 0.18
43 | AGUCAGCAAUAUUACGGGCG | -0.963 ± 0.093 | 0.189 ± 0.13
44 | CGGCAGCAAUAUUACGAAAA | -2.23 ± 0.26 | -2.21 ± 0.37
45 | GAGAAGCAAUAUUACGUUUC | -3.64 ± 0.32 | -3.08 ± 0.27
46 | ACCCAGCAAUAUUACGGGUU | -4.18 ± 0.12 | -2.84 ± 0.13
47 | AUUAAGCAAUAUUACGGGCA | -0.791 ± 0.12 | -0.507 ± 0.12
48 | UAAAAGCAAUAUUACGUAAC | -3.84 ± 0.33 | -2.02 ± 0.3
49 | GGAAAGCAAUAUUACGCCUA | -1.28 ± 0.18 | -0.669 ± 0.23
50 | UCGAAGCAAUAUUACGCCGG | -2.32 ± 0.13 | -2.18 ± 0.19

Row | Sequence | self-splicing fitness (ln) (30 °C) | self-splicing fitness (ln) (37 °C)
51 | UUAAAGCAAUAUUACGUAUG | -0.495 ± 0.068 | -0.0669 ± 0.097
52 | UGCCAGCAAUAUUACGGAUA | -1.27 ± 0.091 | -0.573 ± 0.1
53 | AACUAGCAAUAUUACGAGAU | -2.52 ± 0.13 | -1.65 ± 0.14
54 | GCAUAGCAAUAUUACGCUGG | – | -2.15 ± 0.49
55 | ACUCAGCAAUAUUACGUAUU | -2.01 ± 0.081 | -0.892 ± 0.11
56 | AAUGAGCAAUAUUACGGGGG | -4.09 ± 0.42 | -1.32 ± 0.25
57 | CGAGAGCAAUAUUACGUUGA | -2.79 ± 0.38 | –
58 | CCACAGCAAUAUUACGUGUA | -3.23 ± 0.096 | -1.63 ± 0.069
59 | UACAAGCAAUAUUACGUACU | -2.71 ± 0.14 | -1.45 ± 0.13
60 | AUCCAGCAAUAUUACGAUCC | -1.43 ± 0.21 | -0.865 ± 0.21
61 | UUCCAGCAAUAUUACGUAGU | -1.32 ± 0.093 | -1.57 ± 0.12
62 | ACGUAGCAAUAUUACGCCAU | -3.02 ± 0.19 | -2.55 ± 0.24
63 | CUGAAGCAAUAUUACGUUUC | -2.72 ± 0.41 | –
64 | UUCGAGCAAUAUUACGCAUU | – | -2.81 ± 0.43
65 | CAUGAGCAAUAUUACGUAAC | -3.38 ± 0.35 | -2.61 ± 0.31
66 | AUACAGCAAUAUUACGUGGC | -3.22 ± 0.12 | -2.39 ± 0.15
67 | CCAGAGCAAUAUUACGUCUU | -3.89 ± 0.21 | -3.03 ± 0.2
68 | UAGAAGCAAUAUUACGGACU | -1.29 ± 0.13 | 0.474 ± 0.11
69 | GACGAGCAAUAUUACGACGA | -0.98 ± 0.11 | -1.07 ± 0.12
70 | GAUCAGCAAUAUUACGAUAC | -1.08 ± 0.078 | -0.733 ± 0.12
71 | UUGGAGCAAUAUUACGGCCA | -2.23 ± 0.19 | -0.299 ± 0.15
72 | UCCCAGCAAUAUUACGAACC | -1.58 ± 0.2 | -2.08 ± 0.46
73 | CAUAAGCAAUAUUACGUUUG | -3.3 ± 0.17 | -2.46 ± 0.18
74 | CACCAGCAAUAUUACGAUAG | -0.377 ± 0.057 | 0.0494 ± 0.064
75 | UAACAGCAAUAUUACGAACA | -0.546 ± 0.072 | 0.297 ± 0.087

Row | Sequence | self-splicing fitness (ln) (30 °C) | self-splicing fitness (ln) (37 °C)
76 | GAAUAGCAAUAUUACGUAGG | -3.4 ± 0.15 | -2.68 ± 0.2
77 | AUGUAGCAAUAUUACGUCGA | -3.98 ± 0.26 | -2.06 ± 0.18
78 | UAAGAGCAAUAUUACGGCAG | -3.03 ± 0.18 | -1.38 ± 0.17
79 | CCCAAGCAAUAUUACGCGGG | -3.8 ± 0.17 | -2.45 ± 0.18
80 | CCGGAGCAAUAUUACGGAUC | -2.42 ± 0.31 | –
81 | UCAUAGCAAUAUUACGCAAG | -1.94 ± 0.15 | -2.04 ± 0.2
82 | UGCUAGCAAUAUUACGUUCG | -0.807 ± 0.065 | -0.115 ± 0.091
83 | GUCCAGCAAUAUUACGCACC | -2 ± 0.17 | -0.64 ± 0.17
84 | AUGAAGCAAUAUUACGAGCG | 0.0672 ± 0.066 | 0.405 ± 0.085
85 | AUUUAGCAAUAUUACGUGAA | -2.53 ± 0.14 | -0.614 ± 0.12
86 | GCGCAGCAAUAUUACGCCCA | 0.169 ± 0.24 | -0.637 ± 0.33
87 | GUACAGCAAUAUUACGCUAG | -1.88 ± 0.12 | -0.374 ± 0.12
88 | GGUUAGCAAUAUUACGUCUU | -0.107 ± 0.093 | 0.227 ± 0.11
89 | GGGCAGCAAUAUUACGAUUA | -1.27 ± 0.14 | -1.63 ± 0.15
90 | AUUAAGCAAUAUUACGUUGG | -3.38 ± 0.28 | -2.23 ± 0.28
91 | GGGUAGCAAUAUUACGCGCA | -0.0848 ± 0.13 | -0.0359 ± 0.14
92 | AACCAGCAAUAUUACGUGGU | -3.19 ± 0.12 | -3.15 ± 0.17
93 | GCCGAGCAAUAUUACGAUAA | -2.07 ± 0.21 | -2.08 ± 0.26
94 | GAUGAGCAAUAUUACGGGAA | -3.01 ± 0.23 | -3.7 ± 0.42
95 | UCUCAGCAAUAUUACGAGUA | -1.35 ± 0.066 | -0.132 ± 0.077
96 | GCACAGCAAUAUUACGGGUC | -3.81 ± 0.17 | -1.62 ± 0.097
97 | AAACAGCAAUAUUACGGACA | -1.54 ± 0.092 | -1.1 ± 0.096
98 | UAGAAGCAAUAUUACGACCU | 0.0379 ± 0.17 | -1.35 ± 0.14
99 | UCUGAGCAAUAUUACGACGU | -0.648 ± 0.13 | 0.778 ± 0.13
